For test [1], the target named is Nucleolysin TIA-1 (endogenous mouse TIA1) (mouse) (UniProt P52912). The test can be described thus: TIA1 IP-MS, WT3 cortex.
The target is the same in test [2]. Description: TIA1 IP-MS, tau KO 1 cortex.
The target is the same in test [3]. The test can be described thus: TIA1 IP-MS, tau KO 2 cortex.
Test [4] has the same target. The test can be described thus: TIA1 IP-MS, WT1 cortex.
The target is the same in test [5]. The test can be described thus: TIA1 IP-MS, WT2 cortex.
For test [6] the target is unchanged. Description: TIA1 IP-MS, tau KO 3 cortex.

Sequence of UniProt P52912 (P52912 whole entry): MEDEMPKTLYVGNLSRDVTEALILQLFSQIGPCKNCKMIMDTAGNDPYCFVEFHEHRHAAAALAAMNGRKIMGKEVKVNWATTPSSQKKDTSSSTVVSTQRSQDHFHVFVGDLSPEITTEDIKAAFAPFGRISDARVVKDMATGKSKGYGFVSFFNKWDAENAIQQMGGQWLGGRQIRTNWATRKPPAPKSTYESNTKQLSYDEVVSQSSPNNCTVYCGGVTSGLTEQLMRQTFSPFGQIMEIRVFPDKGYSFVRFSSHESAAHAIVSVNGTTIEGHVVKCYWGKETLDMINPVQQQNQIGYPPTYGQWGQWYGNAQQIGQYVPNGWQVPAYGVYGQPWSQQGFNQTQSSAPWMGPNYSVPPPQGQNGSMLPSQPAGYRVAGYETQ

Turning to “Protein kinase C epsilon type (from UniProt P16054 1-737)”, the total ion current (normalized to TIA1 = 1000) was 0 in test [1]; 0 in test [2]; 0 in test [3]; 0 in test [4]; 78.7 in test [5]; 0 in test [6].

“V-type proton ATPase subunit H (from UniProt Q8BVE3 1-483)”: the total ion current (normalized to TIA1 = 1000) in test [1] came to 57.6; in test [2] it was 0; in test [3] it was 30.3; in test [4], 0; in test [5], 101; in test [6], 0.

Take “Ketimine reductase mu-crystallin (from UniProt O54983 1-313)”: the total ion current (normalized to TIA1 = 1000) in test [1] is 0; in test [2] it was 0; in test [3] it was 0; in test [4], 8.5; in test [5], 0; in test [6] it was 0.

With “Splicing factor U2AF 65 kDa subunit (from UniProt P26369 2-475)”, the total ion current (normalized to TIA1 = 1000) in test [1] amounted to 0; in test [2], 0; in test [3], 107; in test [4] it was 0; in test [5], 162; in test [6] it was 0.

Regarding Prohibitin (from UniProt P67778 2-272), the total ion current (normalized to TIA1 = 1000) stood at 37.7 in test [1]; 0 in test [2]; 137 in test [3]; 0 in test [4]; 172 in test [5]; 0 in test [6].

In the case of “Glutathione S-transferase P 1 (from UniProt P19157 2-210)”, the total ion current (normalized to TIA1 = 1000) stood at 0 in test [1]; 0 in test [2]; 0 in test [3]; 31.6 in test [4]; 0 in test [5]; 0 in test [6].

For “Aspartate aminotransferase, cytoplasmic (from UniProt P05201 2-413)”, the total ion current (normalized to TIA1 = 1000) is 17 in test [1]; 0 in test [2]; 136 in test [3]; 0 in test [4]; 204 in test [5]; 0 in test [6].

Consider “Myelin-oligodendrocyte glycoprotein (from UniProt Q61885 29-246)”, for which the total ion current (normalized to TIA1 = 1000) stood at 607 in test [1]; 0 in test [2]; 76 in test [3]; 0 in test [4]; 133 in test [5]; 0 in test [6].

Consider “Isoform 2 of NAD-dependent protein deacetylase sirtuin-2 (from UniProt Q8VDQ8 1-352)”, for which the total ion current (normalized to TIA1 = 1000) in test [1] stood at 48.2; in test [2], 0; in test [3], 0; in test [4] it was 0; in test [5] it was 175; in test [6], 0.

As for Amphiphysin (from UniProt Q7TQF7 1-686), the total ion current (normalized to TIA1 = 1000) in test [1] is 0; in test [2] it was 0; in test [3], 0; in test [4] it was 0; in test [5] it was 113; in test [6] it was 0.

As for “Nascent polypeptide-associated complex subunit alpha, muscle-specific form (from UniProt P70670 1-2187)”, the total ion current (normalized to TIA1 = 1000) was 0 in test [1]; 10.5 in test [2]; 0 in test [3]; 0 in test [4]; 98.9 in test [5]; 474 in test [6].

Take “Dihydropyrimidinase-related protein 3 (from UniProt Q62188 1-570)”: the total ion current (normalized to TIA1 = 1000) in test [1] was found to be 14.7; in test [2] it was 0; in test [3], 96; in test [4], 0; in test [5], 192; in test [6], 0.

For the substance “CaM kinase-like vesicle-associated protein (from UniProt Q3UHL1 1-512)”, the total ion current (normalized to TIA1 = 1000) in test [1] worked out at 0; in test [2], 0; in test [3], 0; in test [4], 0; in test [5], 92.1; in test [6] it was 0.

As to “Thy-1 membrane glycoprotein (from UniProt P01831 20-131)”, the total ion current (normalized to TIA1 = 1000) in test [1] was 57.7; in test [2], 0; in test [3], 0; in test [4] it was 0; in test [5] it was 75.2; in test [6], 0.

Turning to “Isoform 2 of Plasminogen activator inhibitor 1 RNA-binding protein (from UniProt Q9CY58 1-392)”, the total ion current (normalized to TIA1 = 1000) amounted to 0 in test [1]; 0 in test [2]; 99.8 in test [3]; 0 in test [4]; 136 in test [5]; 0 in test [6].

Consider “Splicing factor 45 (from UniProt Q8JZX4 2-405)”, for which the total ion current (normalized to TIA1 = 1000) amounted to 0 in test [1]; 0 in test [2]; 0 in test [3]; 1.59 in test [4]; 0 in test [5]; 0 in test [6].

Turning to “Isoform 2 of Septin-4 (from UniProt P28661 1-459)”, the total ion current (normalized to TIA1 = 1000) in test [1] came out at 75.6; in test [2], 0; in test [3] it was 52.7; in test [4], 0; in test [5] it was 94.7; in test [6], 0.

As for “Isoform 2 of Homer protein homolog 1 (from UniProt Q9Z2Y3 1-370)”, the total ion current (normalized to TIA1 = 1000) in test [1] was 137; in test [2], 0; in test [3], 59.6; in test [4], 0; in test [5] it was 37.8; in test [6], 0.

For “V-type proton ATPase catalytic subunit A (from UniProt P50516 1-617)”, the total ion current (normalized to TIA1 = 1000) in test [1] is 71.9; in test [2] it was 0; in test [3], 214; in test [4], 0; in test [5] it was 319; in test [6] it was 0.

As to Annexin A7 (from UniProt Q07076 1-463), the total ion current (normalized to TIA1 = 1000) in test [1] worked out at 44.8; in test [2], 0; in test [3], 71.9; in test [4] it was 0; in test [5], 42.4; in test [6], 1120.

For “Protein kinase C gamma type (from UniProt P63318 1-697)”, the total ion current (normalized to TIA1 = 1000) turned out to be 0 in test [1]; 30.3 in test [2]; 0 in test [3]; 39.3 in test [4]; 0 in test [5]; 0 in test [6].

In the case of “Isoform 2 of Clathrin light chain B (from UniProt Q6IRU5 1-211)”, the total ion current (normalized to TIA1 = 1000) in test [1] was 0; in test [2], 0; in test [3], 0; in test [4], 3.53; in test [5], 0; in test [6], 0.

“28 kDa heat- and acid-stable phosphoprotein (from UniProt Q3UHX2 1-181)”: the total ion current (normalized to TIA1 = 1000) came to 0 in test [1]; 0 in test [2]; 15.7 in test [3]; 0 in test [4]; 86 in test [5]; 0 in test [6].
